Assay results taken from patent US20240417762A1, “MICROORGANISMS AND METHODS FOR PRODUCING REUTERIN” (Wisconsin Alumni Research Foundation, priority 2023, published 2024).

B1: Orf14: Limosilactobacillus reuteri Orf14 phage protein (SEQ ID NO:2), overexpressed from pSIP-orf14 (protein, listed as Lactobacillus reuteri)
chain: VIYMNKIKRLCKKYQQVIYTLFAVLVIISVVYFALHGFDSFVKWATTDVGSVADWAGSIGTILAFVAVIWQQGRQENITRAVHIEESRPRFSLTYTPKPVLKTRVLFWGNGRTAVNINEILGSRSAENYRFISIENISNNVVYDYSIILKYHSNDNARVRKDYWSSHGLFPRRSVAIVPKFMGTDKDKIGNYIYDELLVKFTTPANEVGFFISKNINNAQTDSSFGKSQYYFVRGSHVKRVTAINTDKMIDVDSSICRKLDKEFDEIIGITSLGEINENGKLS
B2: Orf14-mucosae: Limosilactobacillus mucosae Orf14 protein (SEQ ID NO:4), natural homolog, codon optimized for expression in L. reuteri (protein, listed as Lactobacillus mucosae)
chain: MKRVKELCKKYQQVIYTLLAVVAIVGVVYFALHGFNSFIKWATTDVGSVADWAGSIGTILAFIAVIWQQGRQENITRAVHVEESRPRFSVTYTPKPQAKTKMLFWGNNRTLSQINTMLNNRNGENYRFINIENISNNVVYDYSIILKYHFYDNSLVRKDYWSSHGLFPRRSIIIVPKFLGTGKDKIGNYIYDELLIKFTTPANEIGFFKMTNVNGNRTDSSFGDSQYYFVRGSHIKRVTAINTDEMIKADSPLCRKLDREFSETTGGTNFGAIGEDGKAY

Test system: reuterin production
Experiment: Determination of reuterin formation during growth of L. reuteri ATCC PTA-6475 and its variants
Assay type: cell-based, Limosilactobacillus reuteri
Method: FIGS. 5A-5E. Reuterin production of L. reuteri ATCC PTA-6475 and its variants during the growth. Overnight cells were inoculated to reach an initial OD 0.1 in mMRS supplemented with 100 mM glucose and 40 mM glycerol. Supernatant was collected every hour during the growth at 37° C. and the reuterin concentrations were determined. The number of cells of each strain at each time point was normalized to an OD of 3. Data are shown as means±standard deviations for three independent experiments. Statistical significance was determined by unpaired t-test. * P<0.05; **** P<0.0001. In FIGS. 5C and 5D, “orf14” refers to orf14 from L. reuteri. In FIG. 5E, the origins of the orf14 genes (L. mucosae or L. reuteri) are indicated.
To characterize the reuterin production during growth, strains were cultured at 37° C. anacrobically in deMan-Rogosa-Sharpe medium (MRS; 288110, BD BioSciences) for 18 h, and then bacteria were sub-cultured to reach an initial OD600 of 0.1 in modified MRS (10 g peptone, 10 g beef extract, 5 g yeast extract, 2 g ammonium citrate dibasic, 2 g K2HPO4, 0.1 g MgSO4, 0.05 g MnSO4, and 1.0 g Tween 80 per liter) supplemented with 100 mM glucose. Cultures were incubated anaerobically at 37° C. Strains harboring pSIP411 or its variants were grown in mMRS supplemented with 5 μg/mL erythromycin. Where applicable, induction peptide (10 ng/ml) (MAGNSSNFIHKIKQIFTHR (SEQ ID NO:34)) was added. Samples were collected every hour up to 8 hours. Cell density was monitored using GENESYS 20 visible spectrophotometer (Thermo Scientific) and reuterin production was measured as described in Zhang et al. 2020. Briefly, cell-free supernatants (50 μL) were mixed with 37.5 μL tryptophan (Sigma-Aldrich) in a 96 well plate, followed by an addition of 150 μL 37% HCl (Thermo scientific). After incubating at 37° C. for 20 min, OD560 was measured by GloMax plate reader (Promega). Two-fold dilutions of acrolein (06-722-501, ThermoFisher) were used to generate a standard curve to quantify reuterin (Doleyres et al. 2005). […]

Row | Molecule | increase in reuterin production compared to that in the wildtype strain (Orf14 overexpressed in L. reuteriΔΦ1ΔΦ2, following 5 h incubation, P<0.05) | reuterin production (growth at 37° C. in mMRS with 100 mM glucose and 40 mM glycerol, supernatant, normalized to OD 3) | higher reuterin production compared to the overexpression of native Orf14 (overexpression in L. reuteri (FIG. 5E))
1 | B1 | 3 fold | rescued reuterin production | –
2 | B2 | – | – | 2.9 fold
